Results: PMC7141811

Columns and labels:
[1] = biological target: mEGFP-CaMKII-α (human Ca2+/calmodulin-dependent protein kinase II α, Avitag-linker-mEGFP-linker-CaMKII-α) (human) (UniProt Q9UQM7); assay: single-molecule pull-down with TIRF colocalisation; mEGFP-CaMKII-α and mCherry-CaMKII-β* co-transfected in HEK 293T cells (α:β* 3:1 and 1:1); biotinylated holoenzymes captured from 100-200x diluted lysate on streptavidin-coated glass; colocalisation of green and red spots; data not shown
[2] = biological target: mEGFP-CaMKII-α (human Ca2+/calmodulin-dependent protein kinase II α, Avitag-linker-mEGFP-linker-CaMKII-α) (human) (UniProt Q9UQM7)

Chain of UniProt Q9UQM7 (Q9UQM7 whole entry): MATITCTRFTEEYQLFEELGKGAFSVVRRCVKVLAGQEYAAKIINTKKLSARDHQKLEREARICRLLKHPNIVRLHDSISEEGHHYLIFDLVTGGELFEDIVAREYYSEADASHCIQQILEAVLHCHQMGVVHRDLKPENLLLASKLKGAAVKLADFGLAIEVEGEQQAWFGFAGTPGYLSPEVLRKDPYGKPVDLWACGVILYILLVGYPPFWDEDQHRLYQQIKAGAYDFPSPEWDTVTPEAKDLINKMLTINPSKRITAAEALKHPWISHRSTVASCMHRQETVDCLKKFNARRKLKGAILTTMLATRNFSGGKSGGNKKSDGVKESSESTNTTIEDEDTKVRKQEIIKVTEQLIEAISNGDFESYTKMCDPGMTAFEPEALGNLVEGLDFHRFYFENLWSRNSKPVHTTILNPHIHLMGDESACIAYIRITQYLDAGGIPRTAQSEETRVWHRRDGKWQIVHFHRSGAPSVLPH

percent colocalization of red and green spots (heterooligomeric holoenzymes) [1] [%]	EC50 of CaMKII-α activation (autophosphorylation at Thr 286 of glass-immobilised holoenzymes, single-molecule TIRF) by Ca2+/CaM, 20 nM to 5 μM, 100 μM Ca2+, ATP [2] [nM]	Substance
80	–	mCherry-CaMKII-β* (CaMKII-α in which the kinase-hub linker is replaced by that from CaMKII-β) (enzyme)
–	50 to 100	calmodulin (Ca2+/calmodulin) (from UniProt P62157 1-149) (natural protein)
